Data as given in patent US20220064331A1 (Genentech, published 2022).

Assays:
hKLB-ECD-HIS protein = target: T1, hKLB-ECD-HIS protein (human, UniProt Q86Z14 53-996); assay: ELISA on hKLB-ECD-HIS protein, chimeric IgG (murine variable, hIgG1 constant regions), OD450
T1 construct: recombinant hKLB-ECD-HIS protein (R&D Systems); also called recombinant KLB-ECD protein; not shown: HIS tag
Description: In addition, some of the antibodies were ranked by ELISA. For these experiments, anti-KLB antibodies that were chimeric recombinant IgG with murine variable regions and hIgG1 constant regions were used to measure binding to hKLB-ECD-HIS protein.

[1] = target: T2, human KLB expressed on cells (human, UniProt Q86Z14 53-1044); assay: FACS on cells expressing hKLB, hKLA and chimeras; domain of hKLB recognized
T2 construct: on transfected 293 / HEK293 cells; also called hKLB; beta-Klotho

B1: 8E1 (antibody, V domains shown)
VH: EVQLQQSGAELVKPGASVKLSCTAADFNIKDTYMHWVKQRPEQGLEWIGRIDPSNGNAKYDPKFQGKASITADSSSNTAYLHLSSLTSEDTAVYYCASRALGNGYALGYWGQGTSVTVSS
VL: DIQMTQSSSYLSVSLGGSVTITCKASDHINNWLAWYQQKPGNAPRLLIYGTTNLETGVPSRFSGSGSGRDYILSITSLQSEDVASYYCQQYWNTPFTFGSGTKLEIK
notes: murine hybridoma-derived anti-KLB antibody
B1: binds (hKLB-ECD-HIS protein).

B2: 8C5 (antibody, V domains shown)
VH: QVQLKQSGPGLVQPSQSLSVACTVSDFSLTTYGVHWVRQSPGKGLEWLGVIWSGGSTDYNAAFISRLTISKDNSKSQVFFKMNSLQTTDTAIYYCARDYGSTYVDAIDYWGQGTSVTVSS
VL: DIVLTQSPTSLAVSLGQRATISCRASESVESYGNRYMTWYQQKPGQPPKLLIYRAANLQSGIPARFSGSGSRTDFTLTIDPVEADDVATYYCQQSNEDPWTFGGGTKVEIK
notes: murine hybridoma-derived anti-KLB antibody; also called KLBmAb1
B2: binds (hKLB-ECD-HIS protein).

B3: 14E6 (antibody, V domains shown)
VH: EVPLQQSGPELVKPGATVKISCKPSGDTFTEYTMNWVRQSHGKSLEWIGGINPNNGETSYNQKFKGKATLTVDKSSSTAFMDLRILTSEDSAVYFCARKTTNYWGQGTTLIVSS
VL: DIQMTQSPSSLSASLGERVSLTCRASQEISGYLSWLQQKPDGTIKRLIYAASTLDSGVPRRFSGSRSGSDYSLTISSLESEDFADYYCLQYGSYPWTFGGGTKLELK
notes: as for B1
B3: binds (hKLB-ECD-HIS protein); binds [1].

B4: 11F1 (antibody, V domains shown)
VH: EVQLVESGGGLVKPGGSLKLSCAPSGFTFSSYGISWVRQTPEKRLEWVATVSSGGRYTYYPDSVKGRFTISRDNAENTLYLQMSSLRSEDTAMYYCTRGGDGYALDYWGQGTSVTVSS
VL: DIQMTQTTSSLSASLGDRVTIICSASQVISNYLNWYQQKPDGTVKLLIYFTSSLRSGVPSRFSGSGSGTDYSLTISNLEPEDVATYFCQQYSKLPWTFGGGTKLELK
notes: as for B1
B4: binds (hKLB-ECD-HIS protein); binds [1].

B5: 46C3 (antibody, V domains shown)
VH: EVQLQQSGAELVKPGASVKLSCTASDFNIIDTYIHWVKQRPEQGLEWIGRIDPANGNTKYDPKFQDKAALTSDTDSNTAYLLFNSLTSEDTAVYYCARGTSYSWFAYWGQGTLVSVSA
VL: AVLMTQTPLSLPVSLGDQASISCRSSQNIVHSDGNTYLEWYLQKPGQSPKLLIYKVSNRFSGVPDRFSGSGSGRDFTLKISRVEAGDLGVYYCFQGSHVLTFGAGTRLELK
notes: as for B1
B5: binds [1].

B6: 21H3 (antibody, V domains shown)
VH: QVQLQQPGAEIVKPGASVRLSCKASGYSFTSYWIHWVKQRPGQGLEWIGEIDPSVSNSNYNQKFKGKATLTADKSSSTAYMQLSGLTSEDSAVYFCVRLGVMVYGSSPFWFAYWGQGTLVTVSA
VL: DIVMTQSQKFMSTSVGDRVSITCKASQFVSDAVAWYQQKPGQSPKLLICSASYRYTGVPDRFTGSGSGTDFTFTISSVRTEDLAVYYCQQHYIVPYTFGGGTTLEIE
notes: as for B1
B6: binds [1].
